One molecule from patent publication US20260159601A1 (Hoffmann-La Roche, published 2026) can be followed below.

The target of assay [1] is human transferrin receptor 1 on MDCKII cells transfected with huTfR1 (human, UniProt P02786 1-760). In words: cell-based or functional assay.
Assay [2] deals with T1, human CD20 (human, UniProt P11836 1-297).
T1 construct: On a human B-cell lymphoma cell line, human tonsil-derived B-cells and human PBMC B-cells; also called huCD20; MS4A1
T1 sequence: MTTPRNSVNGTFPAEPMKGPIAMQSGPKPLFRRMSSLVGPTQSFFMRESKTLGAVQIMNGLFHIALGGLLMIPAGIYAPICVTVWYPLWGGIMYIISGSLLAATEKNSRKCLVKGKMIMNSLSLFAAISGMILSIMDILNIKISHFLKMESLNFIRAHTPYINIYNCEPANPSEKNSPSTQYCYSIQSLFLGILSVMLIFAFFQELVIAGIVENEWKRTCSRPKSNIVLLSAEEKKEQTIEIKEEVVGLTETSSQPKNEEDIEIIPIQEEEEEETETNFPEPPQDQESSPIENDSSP
Nature of the assay: flow cytometry on a human B-cell lymphoma cell line, 30 min at 4 C, detection with FITC-labeled F(ab)'2 goat anti-human Fc-gamma-specific antibody, median fluorescence intensity. (In general: In flow cytometry, cells or beads pass a laser one at a time.)

Assay [3] deals with CD20 (species not stated, in-vitro-measured KD used in the cynomolgus monkey PK model). In words: in vitro measurement, method not stated; value used in the PK model.
Assay [4] concerns the target T1, human CD20. In words: cell-based or functional assay.
Assay [5] has as its target T2, cynomolgus monkey transferrin receptor 1 (cynomolgus monkey, UniProt H9EXL1 89-760 (rhesus entry)).
T2 construct: also called cyTfR1
In words: surface plasmon resonance at 37° C.; cynomolgus TfR1; SPR at 37° C.

T2 sequence (chain, as listed by the source): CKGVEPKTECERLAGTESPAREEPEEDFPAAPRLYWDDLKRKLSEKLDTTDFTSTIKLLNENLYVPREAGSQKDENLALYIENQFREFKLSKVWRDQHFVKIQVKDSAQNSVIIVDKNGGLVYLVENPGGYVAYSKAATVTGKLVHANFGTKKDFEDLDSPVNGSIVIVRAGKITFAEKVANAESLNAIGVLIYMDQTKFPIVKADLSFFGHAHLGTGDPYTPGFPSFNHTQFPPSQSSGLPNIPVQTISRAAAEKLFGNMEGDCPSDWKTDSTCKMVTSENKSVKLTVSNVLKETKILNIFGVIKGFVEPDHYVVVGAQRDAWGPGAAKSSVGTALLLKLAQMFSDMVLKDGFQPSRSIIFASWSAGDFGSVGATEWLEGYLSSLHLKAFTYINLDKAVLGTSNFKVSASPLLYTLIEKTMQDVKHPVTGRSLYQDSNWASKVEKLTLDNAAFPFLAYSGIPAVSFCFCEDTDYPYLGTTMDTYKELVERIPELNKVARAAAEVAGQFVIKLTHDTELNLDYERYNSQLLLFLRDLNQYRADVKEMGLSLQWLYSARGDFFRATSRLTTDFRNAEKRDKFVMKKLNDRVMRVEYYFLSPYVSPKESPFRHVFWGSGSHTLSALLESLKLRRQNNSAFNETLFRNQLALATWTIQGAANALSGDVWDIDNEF
human transferrin receptor 1 on MDCKII cells transfected with huTfR1, sequence (P02786 whole entry): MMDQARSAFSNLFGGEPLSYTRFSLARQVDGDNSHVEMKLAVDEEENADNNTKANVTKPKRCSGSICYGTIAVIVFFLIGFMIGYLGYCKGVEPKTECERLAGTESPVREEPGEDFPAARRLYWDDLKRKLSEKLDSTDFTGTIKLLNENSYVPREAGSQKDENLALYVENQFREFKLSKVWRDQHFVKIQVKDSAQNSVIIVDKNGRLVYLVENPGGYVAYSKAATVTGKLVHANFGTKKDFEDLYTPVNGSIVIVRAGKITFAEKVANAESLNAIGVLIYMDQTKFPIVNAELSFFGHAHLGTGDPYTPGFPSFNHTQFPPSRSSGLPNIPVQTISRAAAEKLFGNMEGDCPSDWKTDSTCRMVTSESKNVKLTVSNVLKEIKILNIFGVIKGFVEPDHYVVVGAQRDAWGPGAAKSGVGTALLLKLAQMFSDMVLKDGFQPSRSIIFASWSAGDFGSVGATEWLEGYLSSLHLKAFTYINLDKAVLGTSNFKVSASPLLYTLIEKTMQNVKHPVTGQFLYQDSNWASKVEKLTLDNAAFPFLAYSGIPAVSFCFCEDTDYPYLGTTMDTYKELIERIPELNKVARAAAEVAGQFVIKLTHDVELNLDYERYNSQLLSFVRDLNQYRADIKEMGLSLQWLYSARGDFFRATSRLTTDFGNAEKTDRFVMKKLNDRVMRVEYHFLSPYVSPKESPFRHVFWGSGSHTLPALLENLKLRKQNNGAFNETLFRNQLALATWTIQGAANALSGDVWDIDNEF

B1: RG6035 (bispecific antibody, human IgG1, kappa, L234A L235A)
light 1: DIVMTQTPLSLPVTPGEPASISCRSSKSLLHSNGITYLYWYLQKPGQSPQLLIYQMSNLVSGVPDRFSGSGSGTDFTLKISRVEAEDVGVYYCAQNLELPYTFGGGTKVEIKRTVAAPSVFIFPPSDRKLKSGTASVVCLLNNFYPREAKVQWKVDNALQSGNSQESVTEQDSKDSTYSLSSTLTLSKADYEKHKVYACEVTHQGLSSPVTKSFNRGEC
heavy 1: VQLVQSGAEVKKPGSSVKVSCKASGYAFSYSWINWVRQAPGQGLEWMGRIFPGDGDTDYNGKFKGRVTITADKSTSTAYMELSSLRSEDTAVYYCARNVFDGYWLVYWGQGTLVTVSSASTKGPSVFPLAPSSKSTSGGTAALGCLVEDYFPEPVTVSWNSGALTSGVHTFPAVLQSSGLYSLSSVVTVPSSSLGTQTYICNVNHKPSNTKVDEKVEPKSCDKTHTCPPCPAPEAAGGPSVFLFPPKPKDTLMISRTPEVTCVVVDVSHEDPEVKFNWYVDGVEVHNAKTKPREEQYNSTYRVVSVLTVLHQDWLNGKEYKCKVSNKALGAPIEKTISKAKGQPREPQVCTLPPSRDELTKNQVSLSCAVKGFYPSDIAVEWESNGQPENNYKTTPPVLDSDGSFFLVSKLTVDKSRWQQGNVFSCSVMHEALHNHYTQKSLSLSPG
light 2: AIQLTQSPSSLSASVGDRVTITCRASQSISSYLAWYQQKPGKAPKLLIYRASTLASGVPSRFSGSGSGTDFTLTISSLQPEDFATYYCQQNYASSNVDNTFGGGTKVEIKSSASTKGPSVFPLAPSSKSTSGGTAALGCLVKDYFPEPVTVSWNSGALTSGVHTFPAVLQSSGLYSLSSVVTVPSSSLGTQTYICNVNHKPSNTKVDKKVEPKSC
heavy 2: not shown
notes: human IgG1 Fc with L234A, L235A, P329G; also called RO7121932; BS-CD20
Consider B1, for which the “intracellular uptake in MDCKII-huTfR cells against non-transfected MDCKII-parental cells, 30-minute pulse, IgG ELISA” value in assay [1] is 30 fold. Further, in the assay with human CD20 [2], the EC50 (read off the curve) (usually the concentration at which the effect is half-maximal) was roughly 3 nM. In assay [3], the affinity, expressed as Kd, was 3.3 nM. For the same molecule, in the assay with human CD20 [4], the “EC50 of CD19+-B-cell depletion, ex vivo human tonsil-derived cells, average of three donors” value stood at 0.4 nM; the “EC50 of CD19+-B-cell depletion, ex vivo human tonsil-derived cells, donor T1” value was determined as 0.44 nM; the “EC50 of CD19+-B-cell depletion, ex vivo human tonsil-derived cells, donor T2” value was determined as 0.2 nM; the “EC50 of CD19+-B-cell depletion, ex vivo human tonsil-derived cells, donor T3” value turned out to be 0.55 nM. For the same molecule, the Kd (in general, the constant that tells how readily two partners part at equilibrium) in assay [5] is 694 nM.
